In the experiment the target is T1, Rrp44 D171N/D551N (S. cerevisiae, UniProt Q08162 1-1001, D171N | D551N).
T1 sequence: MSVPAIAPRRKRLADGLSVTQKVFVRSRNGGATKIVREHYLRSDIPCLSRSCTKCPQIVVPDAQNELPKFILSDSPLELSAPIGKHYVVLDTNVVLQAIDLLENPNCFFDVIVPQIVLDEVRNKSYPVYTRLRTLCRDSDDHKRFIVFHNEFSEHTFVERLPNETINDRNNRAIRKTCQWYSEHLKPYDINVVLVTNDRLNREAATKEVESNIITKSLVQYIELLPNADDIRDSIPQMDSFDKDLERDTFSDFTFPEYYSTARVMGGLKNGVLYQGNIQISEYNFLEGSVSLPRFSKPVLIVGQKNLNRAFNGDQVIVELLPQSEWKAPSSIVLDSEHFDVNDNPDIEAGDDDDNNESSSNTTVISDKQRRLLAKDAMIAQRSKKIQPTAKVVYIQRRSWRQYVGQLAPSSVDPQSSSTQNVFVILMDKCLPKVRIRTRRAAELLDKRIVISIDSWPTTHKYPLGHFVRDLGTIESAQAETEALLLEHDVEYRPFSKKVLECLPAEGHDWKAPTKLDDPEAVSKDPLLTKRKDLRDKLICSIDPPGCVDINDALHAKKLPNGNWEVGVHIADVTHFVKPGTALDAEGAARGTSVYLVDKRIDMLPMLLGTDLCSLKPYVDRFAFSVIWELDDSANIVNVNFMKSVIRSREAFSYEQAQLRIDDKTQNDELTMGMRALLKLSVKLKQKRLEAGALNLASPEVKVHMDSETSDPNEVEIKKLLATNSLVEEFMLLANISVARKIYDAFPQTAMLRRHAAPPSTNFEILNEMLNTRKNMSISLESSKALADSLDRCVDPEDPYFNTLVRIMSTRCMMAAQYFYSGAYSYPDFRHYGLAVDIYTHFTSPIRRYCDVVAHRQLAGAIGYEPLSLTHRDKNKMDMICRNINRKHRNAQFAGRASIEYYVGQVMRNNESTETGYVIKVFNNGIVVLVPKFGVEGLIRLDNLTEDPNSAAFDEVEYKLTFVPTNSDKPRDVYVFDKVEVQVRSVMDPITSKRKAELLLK
Kind of experiment: crystal structure.

B1: Rrp43 (natural protein, S. cerevisiae)
chain: MAESTTLETIEIHPITFPPEVLARISPELSLQRHLSLGIRPCLRKYEEFRDVAIENNTLSRYADAGNIDTKNNILGSNVLKSGKTIVITSITGGIIEETSAAIKDLDDFGEEELFEVTKEEDIIANYASVYPVVEVERGRVGACTDEEMTISQKLHDSILHSRILPKKALKVKAGVRSANEDGTFSVLYPDELEDDTLNETNLKMKRKWSYVLYAKIVVLSRTGPVFDLCWNSLMYALQSVKLPRAFIDERASDLRMTIRTRGRSATIRETYEIICDQTKSVPLMINAKNIAFASNYGIVELDPECQLQNSDNSEEEEVDIDMDKLNTVLIADLDTEAEETSIHSTISILAAPSGNYKQLTLVGGGAKITPEMIKRSLLLSRVRADDLSTRFNI
In the case of B1, the binding result is reported as “binds”.

Values taken from paper PMC5115963 (Molecular cell, 2016).
